Experimental data taken from patent US10947272B2, “BACE1 inhibitor peptides” (HOFFMANN-LA ROCHE INC., priority 2015, dated 2021).
Several values for one entry are separate records, joined by “and”; a condition that tells them apart may be missing. Identical values can stand only once. Numbered stars: 1 amine (or outer) side, 2 acyl side, 3 side chain; on linkers, the order of the positions; unused ones are H or OH. Square brackets hold non-standard residues; d marks the D form. Primed or numbered codes have the meaning given here. Ends that are not written are not given here. * marks the point of attachment. PEG(4) = non-peptide PEG linker joining two peptide parts; MetSta(3S,4S) = CSCC[C@H](N[*:1])[C@@H](O)CC(=O)[*:2]; MetSta = statine analogue named MetSta in the name; Biotin = O=C1N[C@H]2[C@H](CS[C@H]2CCCCC(=O)*)N1; Sta = CC(C)C[C@H](N)[C@@H](O)CC(=O)O; PEG4 = NCCOCCOCCOCCOCCC(=O)O; PEG3 = NCCOCCOCCOCCC(=O)O; PEG8′ = not defined here; AEEA = NCCOCCOCC(=O)O

Molecular target: BACE1 (Asp2, β-secretase, Memapsin-2) in HEK293 cells stably expressing human APP695 (UniProt P56817 46-501, limits assumed)
Assay: cell-based or functional assay

Chain of BACE1 (Asp2, β-secretase, Memapsin-2) in HEK293 cells stably expressing human APP695 (P56817 46-501 limits assumed): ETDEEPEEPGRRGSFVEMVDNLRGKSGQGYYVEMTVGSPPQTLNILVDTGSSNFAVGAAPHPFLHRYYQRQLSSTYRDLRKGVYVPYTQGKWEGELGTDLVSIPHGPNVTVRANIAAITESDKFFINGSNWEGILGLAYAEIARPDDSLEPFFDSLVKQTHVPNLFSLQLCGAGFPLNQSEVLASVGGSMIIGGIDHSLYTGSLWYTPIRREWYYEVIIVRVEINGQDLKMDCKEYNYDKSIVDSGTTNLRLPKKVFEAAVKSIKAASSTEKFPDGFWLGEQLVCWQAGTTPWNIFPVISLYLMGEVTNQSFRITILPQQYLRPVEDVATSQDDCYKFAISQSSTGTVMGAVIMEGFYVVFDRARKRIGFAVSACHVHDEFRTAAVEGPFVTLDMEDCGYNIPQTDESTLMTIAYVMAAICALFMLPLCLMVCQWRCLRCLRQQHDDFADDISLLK

| Binder | IC 50, cellular Aβ-lowering assay (Aβ40 in supernatant of HEK293 cells expressing human APP695) |
| --- | --- |
| H-YPYF[dK]L[PEG4]EVN[Sta]VAE[dP]-NH2 (also: TFA salt) [H-Tyr-Pro-Tyr-Phe-DLys-Leu-PEG(4)-Glu-Val-Asn-Sta-Val-Ala-Glu-DPro-NH2 × 3TFA] | > 40000 nM |
| YPYFIP[dK]G[dK]GEVN[MetSta(3S,4S)]VAE[dF]-NH2 (also: TFA salt (3 TFA)) [Tyr-Pro-Tyr-Phe-Ile-Pro-DLys-Gly-DLys-Gly-Glu-Val-Asn-MetSta-Val-Ala-Glu-DPhe-NH2 × 3TFA] | 190 nM |
| {Biotin-AEEA}-C[PEG8′]YPYFIP[dK]G[dK]GEVN[Sta]VAE[dP]-NH2 (also: TFA salt) [Biotin-PEG2-Cys-PEG8-Tyr-Pro-Tyr-Phe-Ile-Pro-DLys-Gly-DLys-Gly-Glu-Val-Asn-Sta-Val-Ala-Glu-DPro-NH2] | 18 nM |
| YPYF[dK]LG[dK]GEVNLAAE[dP]-NH2 (also: Leu13-Ala14 hydroxyethylene dipeptide isostere (Leu*Ala) in place of the amide bond, 3TFA salt) [Tyr-Pro-Tyr-Phe-DLys-Leu-Gly-DLys-Gly-Glu-Val-Asn-Leu*Ala-Ala-Glu-DPro-NH2 × 3TFA] | 34 nM |
| GARFIPAG[dK]GEVN[Sta]VAE[dP]-NH2 (also: TFA salt (3 TFA)) [Gly-Ala-Arg-Phe-Ile-Pro-Ala-Gly-DLys-Gly-Glu-Val-Asn-Sta-Val-Ala-Glu-DPro-NH2 × 3TFA] | 420 nM |
| H-[dY]PYFIPLG[dK]GEVN[Sta]VAE[dP]-NH2 (also: TFA salt (2 TFA)) [H-DTyr-Pro-Tyr-Phe-Ile-Pro-Leu-Gly-DLys-Gly-Glu-Val-Asn-Sta-Val-Ala-Glu-DPro-NH2 × 2TFA] | 810 nM |
| YPYFIPLGGGEVN[Sta]VAE[dP]-NH2 (also: TFA salt) [Tyr-Pro-Tyr-Phe-Ile-Pro-Leu-Gly-Gly-Gly-Glu-Val-Asn-Sta-Val-Ala-Glu-DPro-NH2 × TFA] | 420 nM |
| YPYFIPL[PEG4]EVN[MetSta(3S,4S)]VAEP-NH2 (also: TFA salt) [Tyr-Pro-Tyr-Phe-Ile-Pro-Leu-PEG(4)-Glu-Val-Asn-MetSta-Val-Ala-Glu-Pro-NH2 × TFA] | 17 nM |
| YPKFIPLG[dK]GEVN[MetSta(3S,4S)]VAEP-NH2 (also: TFA salt (3 TFA)) [Tyr-Pro-Lys-Phe-Ile-Pro-Leu-Gly-DLys-Gly-Glu-Val-Asn-MetSta-Val-Ala-Glu-Pro-NH2 × 3TFA] | 760 nM |
| YPYFIPL[PEG4]EVN[Sta]VAE[dP]-NH2 (also: TFA salt) [Tyr-Pro-Tyr-Phe-Ile-Pro-Leu-PEG(4)-Glu-Val-Asn-Sta-Val-Ala-Glu-DPro-NH2 × TFA] | 2.7 nM |
| YPYFI[dK]LG[dK]GEVN[Sta]VAE[dP]-NH2 (also: TFA salt (3 TFA)) [Tyr-Pro-Tyr-Phe-Ile-DLys-Leu-Gly-DLys-Gly-Glu-Val-Asn-Sta-Val-Ala-Glu-DPro-NH2 × 3TFA] | > 40000 nM |
| YPYFIP[dK]G[dK]GEVN[MetSta(3S,4S)]VAEP-NH2 (also: TFA salt (3 TFA)) [Tyr-Pro-Tyr-Phe-Ile-Pro-DLys-Gly-DLys-Gly-Glu-Val-Asn-MetSta-Val-Ala-Glu-Pro-NH2 × 3TFA] | 15 nM |
| H-YP[dK]FIPLG[dK]GEVN[Sta]VAE[dP]-NH2 (also: TFA salt) [H-Tyr-Pro-DLys-Phe-Ile-Pro-Leu-Gly-DLys-Gly-Glu-Val-Asn-Sta-Val-Ala-Glu-DPro-NH2] | 29300 nM |
| H-YPKFIPL[PEG4]EVN[Sta]VAE[dP]-NH2 (numbers in words are those of the source; also: 3TFA salt) [1 H-Tyr-Pro-Lys-Phe-Ile-Pro-Leu-PEG(4)-Glu-Val-Asn-Sta-Val-Ala-Glu-DPro-NH2 × 3TFA] | 52 nM |
| YPYFIPLG[dK]GEVN[Sta]VAE[dP]-NH2 (also: 2TFA salt) [Tyr-Pro-Tyr-Phe-Ile-Pro-Leu-Gly-DLys-Gly-Glu-Val-Asn-Sta-Val-Ala-Glu-DPro-NH2 × 2TFA] | 94 nM |
| YPYFIP[dK][PEG(4)]EVNLAAE[dP]-NH2 (numbers in words are those of the source; also: Leu11-Ala12 as Leu*Ala hydroxyethylene dipeptide isostere, 2TFA salt) [Tyr-Pro-Tyr-Phe-Ile-Pro-DLys-PEG(4)-Glu-Val-Asn-Leu*Ala-Ala-Glu-DPro-NH2 × 2TFA] | 15 nM |
| YPYFIPL[PEG4]EVN[MetSta(3S,4S)]VAE[dF]-NH2 (also: TFA salt) [Tyr-Pro-Tyr-Phe-Ile-Pro-Leu-PEG(4)-Glu-Val-Asn-MetSta-Val-Ala-Glu-DPhe-NH2 × TFA] | 430 nM |

| Binder | IC 50, cellular Aβ-lowering assay (Aβ40 in supernatant of HEK293 cells expressing human APP695) |
| --- | --- |
| H-Y[dK]YFIPLG[dK]GEVN[Sta]VAE[dP]-NH2 (also: TFA salt) [H-Tyr-DLys-Tyr-Phe-Ile-Pro-Leu-Gly-DLys-Gly-Glu-Val-Asn-Sta-Val-Ala-Glu-DPro-NH2] | > 40000 nM |
| H-YPYF[dK]PL[PEG4]EVN[Sta]VAE[dP]-NH2 (numbers in words are those of the source; also: TFA salt (2 TFA)) [H-Tyr-Pro-Tyr-Phe-DLys-Pro-Leu-PEG(4)-Glu-Val-Asn-Sta-Val-Ala-Glu-DPro-NH2 × 2TFA] | > 40000 nM |
| H-YPYFIP[dK][PEG4]EVN[Sta]VAE[dP]-NH2 (numbers in words are those of the source; also: TFA salt (2 TFA)) [H-Tyr-Pro-Tyr-Phe-Ile-Pro-DLys-PEG(4)-Glu-Val-Asn-Sta-Val-Ala-Glu-DPro-NH2 × 2TFA] | 45 nM |
| TPKPAQGG[dK]GEVN[Sta]VAE[dP]-NH2 (also: TFA salt (3 TFA)) [TPKPAQG-GkG-EVN-Sta-VAEp-NH2 × 3TFA] | > 40000 nM |
| YPYFKPAG[dK]GEVN[Sta]VAE[dP]-NH2 (also: 3TFA salt) [Tyr-Pro-Tyr-Phe-Lys-Pro-Ala-Gly-DLys-Gly-Glu-Val-Asn-Sta-Val-Ala-Glu-DPro-NH2 × 3TFA] | 71 nM and 46 nM |
| YPYFIP[dK][PEG(4)]EVN[MetSta(3S,4S)]VAE[dP]-NH2 (numbers in words are those of the source; also: TFA salt (2 TFA)) [Tyr-Pro-Tyr-Phe-Ile-Pro-DLys-PEG(4)-Glu-Val-Asn-MetSta-Val-Ala-Glu-DPro-NH2 × 2TFA] | 1010 nM |
| YPYF[dK]PLG[dK]GEVN[Sta]VAE[dP]-NH2 (also: TFA salt (3 TFA)) [Tyr-Pro-Tyr-Phe-DLys-Pro-Leu-Gly-DLys-Gly-Glu-Val-Asn-Sta-Val-Ala-Glu-DPro-NH2 × 3TFA] | > 40000 nM |
| Ac-[dY]PYFIPLG[dK]GEVN[Sta]VAE[dP]-NH2 (also: TFA salt) [Ac-DTyr-Pro-Tyr-Phe-Ile-Pro-Leu-Gly-DLys-Gly-Glu-Val-Asn-Sta-Val-Ala-Glu-DPro-NH2 × TFA] | 110 nM |
| H-[dY]PYFIP[dK]G[dK]GEVN[Sta]VAE[dP]-NH2 (also: TFA salt (3 TFA)) [H-DTyr-Pro-Tyr-Phe-Ile-Pro-DLys-Gly-DLys-Gly-Glu-Val-Asn-Sta-Val-Ala-Glu-DPro-NH2 × 3TFA] | 63 nM |
| YPYFIPLGGGEVN[MetSta]VAEP-NH2 (also: TFA salt) [Tyr-Pro-Tyr-Phe-Ile-Pro-Leu-Gly-Gly-Gly-Glu-Val-Asn-MetSta-Val-Ala-Glu-Pro-NH2 × TFA] | 1340 nM |
| YPKFISAG[dK]GEVN[Sta]VAE[dP]-NH2 (also: 3TFA salt) [YPKFISA-GkG-EVN-Sta-VAEp-NH2 × 3TFA] | 750 nM |
| {Biotin-AEEA}-C[PEG3]YPYFIP[dK]G[dK]GEVN[Sta]VAE[dP]-NH2 (also: TFA salt) [Biotin-PEG2-Cys-PEG3-Tyr-Pro-Tyr-Phe-Ile-Pro-DLys-Gly-DLys-Gly-Glu-Val-Asn-Sta-Val-Ala-Glu-DPro-NH2] | 26 nM |
| [dK]PYFIPLG[dK]GEVN[Sta]VAE[dP]-NH2 (also: TFA salt (3 TFA)) [DLys-Pro-Tyr-Phe-Ile-Pro-Leu-Gly-DLys-Gly-Glu-Val-Asn-Sta-Val-Ala-Glu-DPro-NH2 × 3TFA] | 2930 nM |
| YPYFIP[dK]G[dK]GEVN[Sta]VAE[dP]-NH2 (also: TFA salt (3 TFA)) [Tyr-Pro-Tyr-Phe-Ile-Pro-DLys-Gly-DLys-Gly-Glu-Val-Asn-Sta-Val-Ala-Glu-DPro-NH2 × 3TFA] | 19 nM |
| YPYFIPLG[dK]GEVN[MetSta(3S,4S)]VAEP-NH2 (also: 2TFA salt) [Tyr-Pro-Tyr-Phe-Ile-Pro-Leu-Gly-DLys-Gly-Glu-Val-Asn-MetSta-Val-Ala-Glu-Pro-NH2 × 2TFA] | 470 nM |
| H-GGGYPYFIP[dK]G[dK]GEVN[Sta]VAE[dP]-NH2 (also: TFA salt) [H-Gly-Gly-Gly-Tyr-Pro-Tyr-Phe-Ile-Pro-DLys-Gly-DLys-Gly-Glu-Val-Asn-Sta-Val-Ala-Glu-DPro-NH2 × 3TFA] | 6.4 nM |
| YPKFIPLG[dK]GEVN[Sta]VAE[dP]-NH2 (also: TFA salt (3 TFA)) [Tyr-Pro-Lys-Phe-Ile-Pro-Leu-Gly-DLys-Gly-Glu-Val-Asn-Sta-Val-Ala-Glu-DPro-NH2 × 3TFA] | 280 nM |
